T1: human IL-10RA-Fc fusion (human, UniProt Q13651 22-235)
T1 sequence: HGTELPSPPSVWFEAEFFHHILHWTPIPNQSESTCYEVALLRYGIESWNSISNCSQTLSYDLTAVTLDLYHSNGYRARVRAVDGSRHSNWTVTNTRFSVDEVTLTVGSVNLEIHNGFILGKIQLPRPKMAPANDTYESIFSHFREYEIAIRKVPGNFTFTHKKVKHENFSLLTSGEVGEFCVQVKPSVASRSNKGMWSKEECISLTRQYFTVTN


The molecules below were run against T1, human IL-10RA-Fc fusion (assay: filter binding; Double filter binding, 37 C, binding buffer not detailed; selection buffer 20 mM HEPES, 2 mM CaCl2, 0.1 mg/ml BSA, 100-150 mM NaCl, pH 7.5). Conditions: protein: commercial; tags: Fc fusion; chain copies: 2; label: 5' 32P.

Row | Molecule | Kd [nM]
1 | 411-J-A1G (ssRNA) RNA: GGGAGAGAGGAAGAGGGAUGGGGGCCAUGACGAUGUCGUUACGUAGAUGCAGAGACUCCUAACGACGACUCGCUGAGAUCGAGA | 9
2 | 411-J-G7T (ssRNA) RNA: GGGAGAGAGGAAGAGGGAUGGGAGCCAUUACGAUGUCGUUACGUAGAUGCAGAGACUCCUAACGACGACUCGCUGAGAUCGAGA | 18
3 | 411-J-G30T (ssRNA) RNA: GGGAGAGAGGAAGAGGGAUGGGAGCCAUGACGAUGUCGUUACGUAGAUGCAUAGACUCCUAACGACGACUCGCUGAGAUCGAGA | 18
4 | 411-J-C28T (ssRNA) RNA: GGGAGAGAGGAAGAGGGAUGGGAGCCAUGACGAUGUCGUUACGUAGAUGUAGAGACUCCUAACGACGACUCGCUGAGAUCGAGA | 18

The molecules below were run on human IgG (human) (assay: filter binding). Conditions: Double filter binding, 37 C, binding buffer not detailed; selection buffer 20 mM HEPES, 2 mM CaCl2, 0.1 mg/ml BSA, 100-150 mM NaCl, pH 7.5.

Row | Molecule | Kd [nM]
5 | GGGAGAGAGGAAGAGGGAUGGGAAAGACCGUUUUUUAAAACGCUCAAUAUACACGACAUAAACGACGACUCGCUGAGAUCGAGA [446 (#3)] | > 500
6 | GGGAGAGAGGAAGAGGGAUGGGUGCUUCAUAGAAACGCGCGAUCUUCCUGUGCGACGACUCGCUGAGAUCGAGA [RJB#44] | > 1000
7 | GGGAGAGAGGAAGAGGGAUGGGAGCCAUGACGAUGUCGUUACGUAGAUGCAGAGACUCCUAACGACGACUCGCUGAGAUCGAGA [411-J] | > 500
8 | GGGAGAGAGGAAGAGGGAUGGGUGCUCAAUUAAGAACCAUCGCUCUCCGGUGCGACGACUCGCUGAGAUCGAGA [RJB#25] | > 1000
9 | GGGAGAGAGGAAGAGGGAUGGGUGCUCGUUUCGAACCAUCGUAACUCCUGUGCGACGACUCGCUGAGAUCGAGA [RJB#161] | > 1000
10 | GGGAGAGAGGAAGAGGGAUGGGUGCUCCUACUGUGGAACCAUCGUUCUUGUGCGACGACUCGCUGAGAUCGAGA [RJB#17] | > 1000
11 | GGGAGAGAGGAAGAGGGAUGGGCGUCUCGUCAAUGCCCUACGUUUGUCUGUGCGACGACUCGCUGAGAUCGAGA [RJB#13] | > 1000
12 | GGGAGAGAGGAAGAGGGAUGGGUGCUCAUCUUGAACGCAUUGUUUCUCCGUGCGACGACUCGCUGAGAUCGAGA [RJB#31] | > 500
13 | GGGAGAGAGGAAGAGGGAUGGGUGCUCACAAACGUGAACCAUCGUCUUGUGCCGACGACUCGCUGAGAUCGAGA [RJB#23] | > 1000
14 | GGGAGAGAGGAAGAGGGAUGGGUGCUCACAUACGUGAACCAUCGUCAAUGGCCGACGACUCGCUGAGAUCGAGA [RJB#10] | > 1000

Same assay, conditions: column inferred from text; Double filter binding, 37 C, binding buffer not detailed; selection buffer 20 mM HEPES, 2 mM CaCl2, 0.1 mg/ml BSA, 100-150 mM NaCl, pH 7.5

Row | Molecule | Kd [nM]
15 | GGGAGAGAGGAAGAGGGAUGGGAAUCGCUCAGCCGGUCCGGAACUGGCAAAGUCAGGUGCUCCGACGACUCGCUGAGAUCGAGA [405 (cluster E)] | 120

Source: article PMC4499151, “Identifying high-affinity aptamer ligands with defined cross-reactivity using high-throughput guided systematic evolution of ligands by exponential enrichment”
